Results on 20 substances are retold here after paper PMC4446439.

By Kd is commonly meant the concentration at which binding is half-saturated. Lower therefore signals a tighter complex.

For this data set, the system named is LSD1Δ1 (KDM1);CoRESTΔ1 (human;human). The experiment in a line: HI-FI fluorescence quenching. Particulars: 20 mM Tris-HCl pH 7.6, 50 mM NaCl, 5 mM DTT, 5% glycerol, 0.01% NP40, 0.01% CHAPS, 100 ug/ml BSA, 2 mM EDTA, room temperature, 15 min.
157 bp nucleosome 6N6, H3 A21C: the Kd worked out at 17.6 nM.

On to 161 bp nucleosome 8N8, H3 K27C, for which the Kd is 232 nM.

In turn, 147 bp nucleosome 1N1, H3 A21C came in with a Kd of 81 nM.

Take 207 bp nucleosome 31N31, H3 K27C: the Kd came to 263 nM.

Consider 169 bp nucleosome 12N12, H3 K27C, for which the Kd was found to be 282 nM. The Kd values of the last two substances are within 1.5-fold of each other.

Turning to 185 bp nucleosome 20N20, H3 K27C, the Kd amounted to 135 nM.

Regarding 177 bp nucleosome 16N16, H3 K27C, the Kd came to 214 nM.

In the case of 159 bp nucleosome 7N7, H3 K27C, the Kd turned out to be 236 nM.

207 bp nucleosome 31N31, H3 A21C yielded a dissociation constant (Kd) of 3 nM. This Kd lies about 79-fold lower than the previous one.

Regarding 151 bp nucleosome 3N3, H3 K27C, the Kd amounted to 716 nM.

181 bp nucleosome 18N18, H3 K27C had a Kd of 100 nM.

As to 165 bp nucleosome 10N10, H3 K27C, the Kd worked out at 205 nM.

In turn, 151L nucleosome 5N1, H3 K27C displayed a Kd of 718 nM.

With 155 bp nucleosome 5N5, H3 K27C, the Kd worked out at 419 nM. This Kd is about 1.7-fold lower than that of the substance before.

181 bp nucleosome 18N18, H3 A21C had a Kd of 3.8 nM.

In turn, 163 bp nucleosome 9N9, H3 K27C returned a Kd of 237 nM.

Turning to 177L nucleosome 31N1, H3 K27C, the Kd came to 769 nM.

As for 147 bp nucleosome 1N1, H3 K27C, the Kd came out at 1640 nM.

As for 161L nucleosome 15N1, H3 K27C, the Kd stood at 406 nM.

157 bp nucleosome 6N6, H3 K27C: the Kd is 470 nM.
